Experiments:
AncSZ = experiment: phosphorylation enrichment, bacterial display (enrichment ratio); higher = better substrate or ligand; peptides without Tyr show the background
EPHB1 = EPHB1 (UniProt P54762); experiment: as above
EPHB2 = EPHB2 (UniProt P29323); experiment: as above
FGFR1 = FGFR1 (UniProt P11362); experiment: as above
FGFR3 = FGFR3 (UniProt P22607); experiment: as above
Fer (mouse) = experiment: as above
Fes = Fes (UniProt P07332); experiment: as above
Fyn = Fyn (UniProt P06241); experiment: as above
Hck = Hck (UniProt P08631); experiment: as above
Jak2 = Jak2 (UniProt O60674); experiment: as above
MERTK = MERTK (UniProt Q12866); experiment: as above
c-Abl (mouse) = experiment: as above
c-Src = experiment: as above
Grb2 SH2 = Grb2 SH2 (UniProt P62993); experiment: SH2 binding enrichment of the phosphorylated peptide, bacterial display (enrichment ratio); higher = better substrate or ligand; peptides without Tyr show the background
SHP2-C SH2 = experiment: as above
c-Src SH2 = experiment: as above
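For SH2 binding enrichment of the phosphorylated peptide, bacterial display in this document: peptide library displayed on the E. coli surface as eCPX fusions, selected cells deep-sequenced, score is each peptide's frequency after selection divided by its frequency in the input.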
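For phosphorylation enrichment, bacterial display in this document: 11-residue human phosphosite peptides and single-mutation variants displayed on the E. coli surface, counted by deep sequencing, each peptide's frequency after selection divided by its frequency in the unselected input library; frequency after pTyr selection over input frequency; kinase dosed for 20-30% of maximal phosphorylation in three min.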

Chain of Hck (P08631 whole entry, looked up): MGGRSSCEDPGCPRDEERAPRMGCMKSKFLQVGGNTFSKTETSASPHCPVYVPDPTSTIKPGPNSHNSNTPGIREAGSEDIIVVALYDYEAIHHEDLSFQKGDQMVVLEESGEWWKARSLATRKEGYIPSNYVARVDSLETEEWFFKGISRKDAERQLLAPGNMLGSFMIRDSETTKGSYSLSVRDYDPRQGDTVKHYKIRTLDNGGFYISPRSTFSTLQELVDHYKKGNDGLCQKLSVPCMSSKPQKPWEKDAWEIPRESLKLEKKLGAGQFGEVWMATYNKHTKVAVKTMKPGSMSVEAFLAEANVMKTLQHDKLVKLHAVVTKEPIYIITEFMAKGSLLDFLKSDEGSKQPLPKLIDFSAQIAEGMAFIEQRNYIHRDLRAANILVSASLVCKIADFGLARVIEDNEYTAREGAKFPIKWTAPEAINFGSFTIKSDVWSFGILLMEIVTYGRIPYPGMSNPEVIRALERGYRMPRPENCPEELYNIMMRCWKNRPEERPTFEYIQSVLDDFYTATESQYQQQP
Chain of FGFR3 (P22607 whole entry, looked up): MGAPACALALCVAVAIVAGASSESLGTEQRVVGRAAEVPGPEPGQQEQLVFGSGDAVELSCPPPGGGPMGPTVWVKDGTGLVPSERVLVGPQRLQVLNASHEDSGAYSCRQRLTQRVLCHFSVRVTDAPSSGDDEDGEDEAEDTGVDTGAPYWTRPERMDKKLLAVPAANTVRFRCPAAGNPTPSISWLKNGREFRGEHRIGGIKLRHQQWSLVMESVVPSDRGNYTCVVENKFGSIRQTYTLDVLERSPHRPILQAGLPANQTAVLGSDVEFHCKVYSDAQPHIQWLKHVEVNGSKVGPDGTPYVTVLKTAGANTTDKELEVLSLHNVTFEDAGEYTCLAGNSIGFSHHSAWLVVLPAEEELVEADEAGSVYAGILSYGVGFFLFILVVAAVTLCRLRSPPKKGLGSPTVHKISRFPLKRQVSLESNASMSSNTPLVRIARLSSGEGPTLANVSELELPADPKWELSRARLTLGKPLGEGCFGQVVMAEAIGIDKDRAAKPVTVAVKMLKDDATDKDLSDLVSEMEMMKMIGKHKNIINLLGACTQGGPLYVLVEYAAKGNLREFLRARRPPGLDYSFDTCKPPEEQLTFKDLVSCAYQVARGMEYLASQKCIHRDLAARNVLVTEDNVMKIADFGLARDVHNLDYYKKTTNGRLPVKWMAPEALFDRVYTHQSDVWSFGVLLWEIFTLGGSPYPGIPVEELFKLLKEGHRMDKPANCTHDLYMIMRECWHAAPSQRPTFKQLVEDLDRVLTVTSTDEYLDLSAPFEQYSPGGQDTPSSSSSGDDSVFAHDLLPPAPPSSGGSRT
Chain of FGFR1 (P11362 whole entry, looked up): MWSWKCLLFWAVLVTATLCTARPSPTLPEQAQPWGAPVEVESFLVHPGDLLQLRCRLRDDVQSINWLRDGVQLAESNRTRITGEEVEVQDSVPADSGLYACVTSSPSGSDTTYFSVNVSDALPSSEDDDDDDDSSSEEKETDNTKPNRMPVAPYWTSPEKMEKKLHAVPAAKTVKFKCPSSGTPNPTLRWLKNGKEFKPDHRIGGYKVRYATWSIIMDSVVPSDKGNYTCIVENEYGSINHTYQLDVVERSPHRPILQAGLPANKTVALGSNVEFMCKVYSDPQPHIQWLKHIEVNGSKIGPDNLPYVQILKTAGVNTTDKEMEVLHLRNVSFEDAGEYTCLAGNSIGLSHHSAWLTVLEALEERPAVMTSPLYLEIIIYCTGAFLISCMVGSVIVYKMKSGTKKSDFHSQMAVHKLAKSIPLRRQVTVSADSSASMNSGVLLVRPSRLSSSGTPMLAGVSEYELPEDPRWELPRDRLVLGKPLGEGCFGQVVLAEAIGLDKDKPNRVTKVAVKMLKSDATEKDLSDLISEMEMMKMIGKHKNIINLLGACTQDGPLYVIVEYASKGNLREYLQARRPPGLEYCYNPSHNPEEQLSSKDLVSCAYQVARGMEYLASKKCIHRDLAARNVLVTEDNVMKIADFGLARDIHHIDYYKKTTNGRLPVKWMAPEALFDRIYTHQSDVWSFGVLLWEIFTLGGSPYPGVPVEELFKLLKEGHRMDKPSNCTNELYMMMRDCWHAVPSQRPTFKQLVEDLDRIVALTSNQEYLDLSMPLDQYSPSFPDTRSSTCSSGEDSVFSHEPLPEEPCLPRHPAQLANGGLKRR
Chain of Fes (P07332 whole entry, looked up): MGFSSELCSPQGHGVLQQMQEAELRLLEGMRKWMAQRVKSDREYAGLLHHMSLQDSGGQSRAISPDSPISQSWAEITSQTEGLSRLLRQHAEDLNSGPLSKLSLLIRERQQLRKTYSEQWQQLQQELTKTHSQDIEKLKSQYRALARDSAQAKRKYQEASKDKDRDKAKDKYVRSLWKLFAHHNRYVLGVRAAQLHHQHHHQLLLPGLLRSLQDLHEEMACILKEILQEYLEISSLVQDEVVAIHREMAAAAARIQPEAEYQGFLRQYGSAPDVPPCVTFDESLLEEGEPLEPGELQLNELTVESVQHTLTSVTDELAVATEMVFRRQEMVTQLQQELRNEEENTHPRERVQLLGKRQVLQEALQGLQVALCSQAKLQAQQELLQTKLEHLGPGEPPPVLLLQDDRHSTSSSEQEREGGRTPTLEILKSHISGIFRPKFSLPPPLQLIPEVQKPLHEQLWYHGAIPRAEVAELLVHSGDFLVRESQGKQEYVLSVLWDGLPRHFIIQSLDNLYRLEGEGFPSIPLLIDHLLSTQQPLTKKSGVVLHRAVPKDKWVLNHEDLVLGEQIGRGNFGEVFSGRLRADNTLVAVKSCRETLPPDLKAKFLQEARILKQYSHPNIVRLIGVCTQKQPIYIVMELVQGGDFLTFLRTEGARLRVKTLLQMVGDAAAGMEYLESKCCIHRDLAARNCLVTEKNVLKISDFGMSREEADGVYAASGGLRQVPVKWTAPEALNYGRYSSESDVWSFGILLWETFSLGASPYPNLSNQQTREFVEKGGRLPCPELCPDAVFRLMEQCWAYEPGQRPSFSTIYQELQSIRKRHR
Chain of MERTK (Q12866 whole entry, looked up): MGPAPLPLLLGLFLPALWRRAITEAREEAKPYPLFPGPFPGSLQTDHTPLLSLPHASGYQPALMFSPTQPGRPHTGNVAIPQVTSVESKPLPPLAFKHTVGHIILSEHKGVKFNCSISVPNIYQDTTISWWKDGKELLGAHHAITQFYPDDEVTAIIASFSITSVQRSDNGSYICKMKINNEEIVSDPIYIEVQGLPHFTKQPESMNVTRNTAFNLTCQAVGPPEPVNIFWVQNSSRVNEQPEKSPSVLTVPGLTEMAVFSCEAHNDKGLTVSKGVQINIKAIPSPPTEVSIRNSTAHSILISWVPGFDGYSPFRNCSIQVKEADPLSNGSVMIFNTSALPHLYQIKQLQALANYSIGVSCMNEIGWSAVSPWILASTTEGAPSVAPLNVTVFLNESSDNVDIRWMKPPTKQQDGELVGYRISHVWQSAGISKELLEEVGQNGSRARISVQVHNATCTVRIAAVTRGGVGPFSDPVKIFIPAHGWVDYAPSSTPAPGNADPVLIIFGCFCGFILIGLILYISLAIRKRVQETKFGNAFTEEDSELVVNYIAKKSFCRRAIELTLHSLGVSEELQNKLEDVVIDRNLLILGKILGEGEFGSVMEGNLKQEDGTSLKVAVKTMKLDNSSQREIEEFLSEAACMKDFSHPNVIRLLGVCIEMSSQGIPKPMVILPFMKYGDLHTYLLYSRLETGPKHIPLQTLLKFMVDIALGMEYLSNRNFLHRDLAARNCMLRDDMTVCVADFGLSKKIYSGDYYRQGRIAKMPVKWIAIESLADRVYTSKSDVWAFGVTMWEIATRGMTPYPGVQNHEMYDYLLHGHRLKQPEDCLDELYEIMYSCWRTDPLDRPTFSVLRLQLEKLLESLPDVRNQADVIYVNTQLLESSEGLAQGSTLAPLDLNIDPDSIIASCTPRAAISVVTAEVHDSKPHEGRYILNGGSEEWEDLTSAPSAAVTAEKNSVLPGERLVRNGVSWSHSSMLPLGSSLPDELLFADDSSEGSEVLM
Chain of Grb2 SH2 (P62993 whole entry, looked up): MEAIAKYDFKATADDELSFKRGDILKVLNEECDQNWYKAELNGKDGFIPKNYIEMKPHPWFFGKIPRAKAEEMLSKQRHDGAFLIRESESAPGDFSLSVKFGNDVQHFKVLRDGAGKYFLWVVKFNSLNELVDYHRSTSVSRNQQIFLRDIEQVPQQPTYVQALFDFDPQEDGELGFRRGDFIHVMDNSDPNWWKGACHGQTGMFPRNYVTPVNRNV
Chain of Fyn (P06241 whole entry, looked up): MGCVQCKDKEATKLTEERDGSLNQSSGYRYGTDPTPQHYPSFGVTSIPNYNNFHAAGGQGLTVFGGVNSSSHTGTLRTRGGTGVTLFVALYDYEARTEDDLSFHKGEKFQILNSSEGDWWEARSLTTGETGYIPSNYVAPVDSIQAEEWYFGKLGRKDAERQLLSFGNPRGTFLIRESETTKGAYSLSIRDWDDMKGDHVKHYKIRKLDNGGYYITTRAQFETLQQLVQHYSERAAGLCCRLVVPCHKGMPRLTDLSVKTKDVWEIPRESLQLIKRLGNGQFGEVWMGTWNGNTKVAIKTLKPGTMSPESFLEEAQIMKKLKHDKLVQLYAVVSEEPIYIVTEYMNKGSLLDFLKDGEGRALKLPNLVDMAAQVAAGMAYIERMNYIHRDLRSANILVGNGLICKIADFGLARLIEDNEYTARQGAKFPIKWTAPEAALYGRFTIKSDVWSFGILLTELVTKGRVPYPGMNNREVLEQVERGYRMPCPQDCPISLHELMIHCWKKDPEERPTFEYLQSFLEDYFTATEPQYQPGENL

Sequence	phosphorylation enrichment (AncSZ)	phosphorylation enrichment (EPHB1)	phosphorylation enrichment (EPHB2)	phosphorylation enrichment (FGFR1)	phosphorylation enrichment (FGFR3)	phosphorylation enrichment (Fer (mouse))	phosphorylation enrichment (Fes)	phosphorylation enrichment (Fyn)	phosphorylation enrichment (Hck)	phosphorylation enrichment (Jak2)	phosphorylation enrichment (MERTK)	phosphorylation enrichment (c-Abl (mouse))	phosphorylation enrichment (c-Src)	SH2 binding enrichment (Grb2 SH2)	SH2 binding enrichment (SHP2-C SH2)	SH2 binding enrichment (c-Src SH2)
QHVPDYRQNVF [PCDHGA1_Y890_YF]	0.889	0.583	0.597	0.59	0.704	0.578	1.03	0.602	0.585	0.991	0.54	0.798	0.572	0.888	0.678	0.508
QKDIFYGLRSL [IGSF10_Y126_T124I]	0.894	0.672	0.616	0.515	0.73	0.405	1.29	0.783	0.676	1.12	0.844	1.03	0.923	0.9	1.14	0.516
QKKPCYEIRWK [PDGFRB_Y562_R561C]	1.43	0.958	1.48	0.914	2.08	1.02	1.03	0.983	1.02	0.653	0.67	0.652	0.361	1.55	2.56	1.73
QKPLDYFRVNL [GALE_Y104_YF]	1.41	1	0.636	7.69	4.41	0.643	1.59	0.58	0.647	8.52	0.647	0.905	0.711	1.05	0.68	0.747
QKPLDYYRVNL [GALE_Y104]	1.77	6.99	2.35	17.8	14.3	0.81	1.27	0.697	0.908	20.5	0.79	2.19	1.85	0.937	0.672	0.422
QLAPQYTFAQG [FLNA_Y1761_YF]	0.734	0.344	0.523	0.561	0.42	0.471	0.564	0.259	0.443	0.512	0.457	0.691	0.599	0.829	1.15	0.634
QLLIEYPPEEV [ZZZ3_Y670_K669E]	1.36	0.788	0.933	0.659	0.833	0.671	1.31	0.618	0.534	1.27	0.622	1.03	0.44	1.04	0.679	0.569
QNTVDYFDLFG [PTPN11_Y62_G60V_YF]	2.35	2.34	1.16	16.2	12.3	0.609	1.44	0.614	0.595	2.22	0.646	0.988	0.619	1.14	0.876	0.759
QRASDYYSQQM [GBP6_Y333_A331S]	0.825	0.66	0.589	1.36	1.22	0.453	0.754	0.574	0.788	0.805	0.558	0.486	0.58	0.928	0.403	0.39
QRIHDYYEHRY [HCN4_Y554]	1.25	1.17	1.23	15.7	9.67	0.903	0.974	0.657	0.825	0.794	0.433	0.445	0.478	1.01	1	1.36
QRRLIYRCQVG [NR2E3_Y81_R76Q]	0.968	0.622	0.728	0.579	0.845	0.643	0.861	0.764	0.629	1.03	0.652	0.595	0.569	0.628	0.412	0.606
QRRNVYFFSFL [PTEN_Y176_Y174N_YF]	1.11	0.649	0.475	0.562	0.728	0.398	1.42	1.15	0.34	1.13	0.5	0.509	0.67	1.13	1.8	0.92
QRRNVYYYSYL [PTEN_Y176_Y174N]	1.72	5.79	3.05	16.4	11.6	2.77	1.41	9.83	7.54	8.42	16	1.15	8.15	0.955	1.27	1.58
QTSTDYDIRFF [CSNK2A1_Y131_L128S_YF]	2.12	1.27	1.22	0.667	1.41	0.809	1.81	1.43	0.968	1.61	0.688	1.18	0.892	1.15	0.864	0.477
QWLEQYTQAIE [LSP1_Y234]	1.4	0.579	0.623	0.489	0.589	0.473	1.15	0.596	0.699	0.924	0.37	10.2	0.406	0.876	0.574	0.709
QYNMQYSSSAA [ERBB2IP_Y981_I979M]	0.882	0.445	0.687	0.792	0.655	0.872	1.18	0.736	0.732	0.956	0.793	1.09	0.859	1.04	1.72	0.603
RAILLYEFVGK [NATD1_Y45_V42I_YF]	4.95	49.4	65.8	4.88	5.57	32.5	7.5	12.1	19.9	3.76	24.9	2.52	12.3	1.58	1.7	1.31

Sequence	phosphorylation enrichment (AncSZ)	phosphorylation enrichment (EPHB1)	phosphorylation enrichment (EPHB2)	phosphorylation enrichment (FGFR1)	phosphorylation enrichment (FGFR3)	phosphorylation enrichment (Fer (mouse))	phosphorylation enrichment (Fes)	phosphorylation enrichment (Fyn)	phosphorylation enrichment (Hck)	phosphorylation enrichment (Jak2)	phosphorylation enrichment (MERTK)	phosphorylation enrichment (c-Abl (mouse))	phosphorylation enrichment (c-Src)	SH2 binding enrichment (Grb2 SH2)	SH2 binding enrichment (SHP2-C SH2)	SH2 binding enrichment (c-Src SH2)
RCYVYYYSYLL [PTEN_Y177_R173C]	1.42	0.82	0.936	1.35	1.64	0.86	2	0.787	1.08	2.13	1.01	1.71	1.36	0.668	0.51	0.407
RDHFGYRQSVT [CD55_Y245_YF]	0.722	0.603	0.33	0.471	0.791	0.427	0.702	0.435	0.489	0.572	0.474	0.538	0.626	0.644	0.82	0.629
RDLEQYVNNVN [PCDH19_Y1097]	1.06	0.64	0.625	0.476	0.633	0.356	1.01	0.405	0.377	1.09	0.612	0.968	0.541	1.8	0.573	0.59
RDMNAYISPSP [MMAA_Y207_R209S]	0.505	0.553	0.477	0.432	0.508	0.66	1.03	0.365	0.323	0.879	0.451	0.671	0.416	1.01	0.715	0.567
REAAAYLHGRL [AGXT_Y297]	0.891	0.322	0.571	0.671	0.595	0.502	1.03	0.543	0.479	1	0.584	1.04	0.655	0.956	1.03	0.557
REENGYNTFAS [FGF10_Y161_I156R_YF]	0.973	0.617	0.709	0.728	0.862	0.558	1	0.84	0.4	0.91	0.69	0.606	0.827	0.728	0.637	1.14
REGAKYVSHGT [ASS1_Y113_A118T]	0.73	0.513	0.587	0.493	0.482	0.375	0.969	0.363	0.37	0.898	0.663	0.517	0.411	0.808	0.706	0.566
RELGKYGLQAY [ALDH2_Y497_E496K]	0.683	0.403	0.402	0.426	0.47	0.475	0.72	0.464	0.455	0.543	0.457	0.581	0.356	1.15	0.564	0.455
RESFKYFPSSL [CXXC1_Y218_YF]	0.748	0.424	0.421	0.543	0.547	0.295	0.567	0.435	0.4	0.612	0.421	0.454	0.852	0.955	0.565	0.367
RESFKYLPSSL [CXXC1_Y218_F219L_YF]	0.561	0.512	0.395	0.329	0.431	0.347	0.862	0.469	0.381	0.837	0.286	0.567	0.429	0.919	0.455	0.353
RFLERYIFNPE [HLA-DPB1_Y57_R61P_YF]	1.27	0.892	0.666	0.46	0.624	0.627	1.25	0.557	0.51	1.39	0.521	1	0.804	3.06	0.835	0.794
RFVSRYIFNRE [HLA-DQB1_Y62_T60S_YF]	1.86	1.13	0.744	0.852	0.934	0.976	1.46	1.05	0.79	2.14	0.994	0.867	0.916	0.733	1.2	0.499
RGEKQYLAAPL [ALOX12_Y295]	0.777	0.402	0.461	0.754	0.341	0.365	0.416	0.436	0.545	0.523	0.377	0.504	0.505	0.709	0.431	0.409
RGERPYGGGGG [FUS_Y526_R522G]	0.487	0.185	0.418	0.419	0.377	0.337	0.643	0.474	0.444	0.65	0.48	0.397	0.415	1.24	0.673	0.661
RGVVMYTSKDR [ZG16B_Y136_M133V]	0.694	0.601	0.724	0.433	0.568	0.41	0.865	0.665	0.677	1.02	0.552	1.4	0.622	0.91	0.981	0.596
RGYRQYAYDGK [HLA-A_Y140_D140Y]	0.478	0.674	0.243	0.426	0.39	0.317	0.474	0.252	0.294	0.402	0.423	0.532	0.434	0.679	0.607	0.44

From the supplement of paper PMC10065799, “High-throughput profiling of sequence recognition by tyrosine kinases and SH2 domains using bacterial peptide display” (eLife, 2023)
